Assay results from PMC4500839 (Nature communications, 2015).

Target: gp120BaL (HIV-1 group M subtype B, isolate BaL …, UniProt Q6TAP7, strain)
Assay: ELISA

B1: PGT128 (antibody, V domains shown)
VH: QPQLQESGPTLVEASETLSLTCAVSGDSTAACNSFWGWVRQPPGKGLEWVGSLSHCASYWNRGWTYHNPSLKSRLTLALDTPKNLVFLKLNSVTAADTATYYCARFGGEVLRYTDWPKPAWVDLWGRGTLVTVSS
VL: QSALTQPPSASGSPGQSITISCTGTSNNFVSWYQQHAGKAPKLVIYDVNKRPSGVPDRFSGSKSGNTASLTVSGLQTDDEAVYYCGSLVGNWDVIFGGGTKLTVL
B1: binds.
